According to patent CN113637078A (WEST CHINA HOSPITAL SICHUAN UNIV, dated 2021):

How the values were obtained:
p38β = p38β (UniProt Q15759 1-364, limits assumed); assay: ELISA, antigen coated on plate, periplasmic extract of the nanobody, anti-FLAG detection, OD450
p38α = p38α (UniProt Q16539 1-360, limits assumed); assay: as above
[1] = molecular target: T1, p38γ with 2×Strep tag (pET28a-p38γ-2×Strep) (Homo sapiens (Human), UniProt P53778 1-367); assay: as above
T1 construct: Recombinant, from E. coli BL21(DE3); The tag is placed at the C-terminus only on the strength of the vector name; not shown: 2×Strep tag
T1 sequence: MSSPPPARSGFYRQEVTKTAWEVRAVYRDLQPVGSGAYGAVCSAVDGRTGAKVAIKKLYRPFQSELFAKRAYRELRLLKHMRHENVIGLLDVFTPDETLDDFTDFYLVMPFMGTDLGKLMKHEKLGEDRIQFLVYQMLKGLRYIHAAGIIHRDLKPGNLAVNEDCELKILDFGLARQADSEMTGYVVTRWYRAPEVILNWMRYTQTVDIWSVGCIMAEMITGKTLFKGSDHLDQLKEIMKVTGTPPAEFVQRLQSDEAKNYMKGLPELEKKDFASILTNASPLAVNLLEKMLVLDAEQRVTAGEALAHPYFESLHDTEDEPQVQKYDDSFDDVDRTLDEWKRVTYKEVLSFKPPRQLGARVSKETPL

[2] = molecular target: T2, 蛋白激酶p38δ with 2×Strep tag (pET28a-p38δ-2×Strep) (Homo sapiens (Human), UniProt O15264 1-365); assay: indirect ELISA, p38δ coated, nanobody at 0-6.4 μM, anti-FLAG detection, 4-parameter fit
T2 construct: Recombinant, from E. coli BL21(DE3); The tag is placed at the C-terminus only on the strength of the vector name pET28a-p38γ/p38δ-2×Strep; Linkers and other vector residues are not described; not shown: 2×Strep tag
T2 sequence: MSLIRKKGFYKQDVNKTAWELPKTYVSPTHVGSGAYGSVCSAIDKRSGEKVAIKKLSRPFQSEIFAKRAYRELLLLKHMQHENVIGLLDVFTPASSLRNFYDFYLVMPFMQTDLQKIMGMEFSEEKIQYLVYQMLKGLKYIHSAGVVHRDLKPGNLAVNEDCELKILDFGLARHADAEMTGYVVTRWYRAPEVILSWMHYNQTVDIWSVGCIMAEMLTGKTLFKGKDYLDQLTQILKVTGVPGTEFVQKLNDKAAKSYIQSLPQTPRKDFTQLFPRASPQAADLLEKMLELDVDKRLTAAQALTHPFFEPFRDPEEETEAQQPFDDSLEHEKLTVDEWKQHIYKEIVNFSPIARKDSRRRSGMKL

p38α, sequence (Q16539 whole entry): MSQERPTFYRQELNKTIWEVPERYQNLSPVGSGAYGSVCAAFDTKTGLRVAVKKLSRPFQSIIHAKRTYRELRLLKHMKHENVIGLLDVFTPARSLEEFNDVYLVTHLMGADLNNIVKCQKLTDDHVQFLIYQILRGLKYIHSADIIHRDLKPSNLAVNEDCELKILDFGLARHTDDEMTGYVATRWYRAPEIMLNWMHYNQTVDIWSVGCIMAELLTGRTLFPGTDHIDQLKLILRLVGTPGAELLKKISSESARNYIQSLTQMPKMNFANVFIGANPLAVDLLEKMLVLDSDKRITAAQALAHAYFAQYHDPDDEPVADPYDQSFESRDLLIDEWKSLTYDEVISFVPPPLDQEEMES
p38β, sequence (Q15759 whole entry): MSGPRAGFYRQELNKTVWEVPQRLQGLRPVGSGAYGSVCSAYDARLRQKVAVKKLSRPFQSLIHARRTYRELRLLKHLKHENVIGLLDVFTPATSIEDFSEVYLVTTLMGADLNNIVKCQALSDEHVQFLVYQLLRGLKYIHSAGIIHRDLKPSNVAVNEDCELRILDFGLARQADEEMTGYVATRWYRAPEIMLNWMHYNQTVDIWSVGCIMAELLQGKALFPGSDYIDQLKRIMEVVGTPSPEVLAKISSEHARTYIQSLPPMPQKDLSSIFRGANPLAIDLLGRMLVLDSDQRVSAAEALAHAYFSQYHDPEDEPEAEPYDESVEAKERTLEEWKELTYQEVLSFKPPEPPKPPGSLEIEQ

B1: 纳米抗体Nb13-6 (nanobody against protein kinase p38δ), C-terminal FLAG tag (VHH)
VHH: QVQLVESGGALVQPGGSLRLSCAASGLEPSMFSLRWYRQAPGKEREWVCGISKWFDDMSYEDSVKGRFTCSRDDARNTVYLQLNSLKPEDTAVYYCASLRPTFLPGLMRTRYWGQGTQVTVSS
notes: Expressed from pET22b in E. coli BL21(DE3); Used mostly as periplasmic extract; Other vector-derived residues are not described; also called 针对蛋白激酶p38δ的纳米抗体; not shown: FLAG tag fused at the C-terminus
B1: no binding (p38β); no binding (p38α); no binding [1]. For the same binder, the Kd [2] was 499 nM.
